# According to article PMC4380771 (Methods (San Diego, Calif.), 2014):
# Values joined by “and” are separate entries in the source; they are usually repeats but may differ in a detail not shown here. Identical values can stand only once. Like-named read-outs stand apart in the source and are kept apart here.
# How the values were obtained:
# [1] = biological target: T1, Tp0655 (Treponema pallidum, UniProt O83661); test: isothermal titration calorimetry; assay type: binding
# T1 sequence (O83661 24-348): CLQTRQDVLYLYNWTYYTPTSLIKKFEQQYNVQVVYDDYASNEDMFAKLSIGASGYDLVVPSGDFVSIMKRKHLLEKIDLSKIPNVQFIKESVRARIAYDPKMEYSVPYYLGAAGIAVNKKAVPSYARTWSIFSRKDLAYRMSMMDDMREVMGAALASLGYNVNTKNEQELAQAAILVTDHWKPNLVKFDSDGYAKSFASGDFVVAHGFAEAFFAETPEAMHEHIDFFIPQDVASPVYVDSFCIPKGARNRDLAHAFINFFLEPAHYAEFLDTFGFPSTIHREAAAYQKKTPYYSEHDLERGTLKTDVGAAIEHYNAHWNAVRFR
# [2] = biological target: bovine α-chymotrypsin (bovine); test: ITC
# [3] = biological target: bovine α-chymotrypsin (bovine); test: ITC; remark: listed apart in the source
# [4] = biological target: bovine α-chymotrypsin (bovine); test: ITC; remark: listed apart in the source
# [5] = biological target: hLF (UniProt P02788); test: ITC
# [6] = biological target: SynIIIC (Rattus norvegicus, UniProt O70441); test: isothermal titration calorimetry; assay type: binding
# [7] = biological target: HIF2α (Homo sapiens, UniProt Q99814); test: isothermal titration calorimetry; assay type: binding
# Chain of HIF2α (Q99814 239-350): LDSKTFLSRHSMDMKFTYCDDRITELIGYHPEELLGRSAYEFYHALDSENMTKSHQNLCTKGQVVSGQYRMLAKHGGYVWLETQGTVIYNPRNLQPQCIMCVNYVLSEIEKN
# Chain of hLF (P02788 20-710): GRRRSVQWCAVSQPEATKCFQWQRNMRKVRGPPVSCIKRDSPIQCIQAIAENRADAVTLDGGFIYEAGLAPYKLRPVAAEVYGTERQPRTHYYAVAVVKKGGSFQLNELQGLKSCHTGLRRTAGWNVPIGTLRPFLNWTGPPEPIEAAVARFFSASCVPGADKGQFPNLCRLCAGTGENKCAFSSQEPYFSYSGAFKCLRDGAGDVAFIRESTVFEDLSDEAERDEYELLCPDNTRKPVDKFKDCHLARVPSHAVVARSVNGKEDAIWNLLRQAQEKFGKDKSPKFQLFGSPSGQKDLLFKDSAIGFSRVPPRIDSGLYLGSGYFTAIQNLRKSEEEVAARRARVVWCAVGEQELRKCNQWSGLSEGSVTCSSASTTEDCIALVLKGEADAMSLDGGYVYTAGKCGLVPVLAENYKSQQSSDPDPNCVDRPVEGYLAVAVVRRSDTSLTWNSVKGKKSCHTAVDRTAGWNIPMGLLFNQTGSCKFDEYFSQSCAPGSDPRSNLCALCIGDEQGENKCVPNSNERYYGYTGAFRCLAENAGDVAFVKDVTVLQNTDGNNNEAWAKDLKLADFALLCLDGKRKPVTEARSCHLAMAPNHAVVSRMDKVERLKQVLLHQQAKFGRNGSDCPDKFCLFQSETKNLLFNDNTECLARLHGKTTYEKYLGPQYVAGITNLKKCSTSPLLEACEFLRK
# Chain of SynIIIC (O70441 89-403): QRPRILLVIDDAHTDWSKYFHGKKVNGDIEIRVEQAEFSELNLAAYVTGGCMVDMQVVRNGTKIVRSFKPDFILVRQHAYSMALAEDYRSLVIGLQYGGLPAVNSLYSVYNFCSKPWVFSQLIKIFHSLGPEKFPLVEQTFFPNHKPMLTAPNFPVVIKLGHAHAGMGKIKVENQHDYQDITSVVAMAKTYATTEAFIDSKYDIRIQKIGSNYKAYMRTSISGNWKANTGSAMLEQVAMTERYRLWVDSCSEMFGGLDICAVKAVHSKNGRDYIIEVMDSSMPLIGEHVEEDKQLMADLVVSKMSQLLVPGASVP
compound,measurement,setting,value
NCCCN [DAP],Kd,[1],36.2 µM
Soybean trypsin inhibitor (from UniProt P01070 25-205) (natural protein),dH,[2],10.5 kcal/mol (2×) and 10.4 kcal/mol
same,log(Ka),[2],6.89 and 6.98 and 7
same,dH,[3],10.5 kcal/mol (2×) and 10.3 kcal/mol
same,logKa,[3],6.99 and 7 and 6.9
same,dH,[4],10.3 kcal/mol and 10.9 kcal/mol and 9.7 kcal/mol
same,logKa,[4],7.27
Tp34 (from UniProt P19478 20-204) (natural protein),Kd,[5],11.3 µM and 11 µM and 22.3 µM
same,log(Ka),[5],4.95
same,logKa,[5],4.96 and 4.65
NCCCCNCCCN [Spermidine],Kd,[1],2.37 µM
Tp34 (files named H70ATp34hLF...) (from UniProt P19478 20-204) (natural protein),dH,[5],4.9 kcal/mol
Nc1ncnc2c1ncn2[C@@H]1O[C@H](COP(=O)(O)OP(=O)(O)OP(=O)(O)O)[C@@H](O)[C@H]1O [ATP],Kd,[6],0.136 µM
"O=[N+]([O-])c1c(Nc2cc(F)cc(Cl)c2)ccc2nonc12 [HBA, N-(3-Chloro-5-fluorophenyl)-4-nitrobenzo[c][1,2, 5]oxadiazol-5-amine]",Kd,[7],0.105 µM
NCCCCN [Putrescine],Kd,[1],0.117 µM
